Results published in IntAct's records for PubMed 35512704.

B1: Speckle-type POZ protein (Homo sapiens), O43791 (parent)
chain: MSRVPSPPPPAEMSSGPVAESWCYTQIKVVKFSYMWTINNFSFCREEMGEVIKSSTFSSGANDKLKWCLRVNPKGLDEESKDYLSLYLLLVSCPKSEVRAKFKFSILNAKGEETKAMESQRAYRFVQGKDWGFKKFIRRDFLLDEANGLLPDDKLTLFCEVSVVQDSVNISGQNTMNMVKVPECRLADELGGLWENSRFTDCCLCVAGQEFQAHKAILAARSPVFSAMFEHEMEESKKNRVEINDVEPEVFKEMMCFIYTGKAPNLDKMADDLLAAADKYALERLKVMCEDALCSNLSVENAAEILILADLHSADQLKTQAVDFINYHASDVLETSGWKSMVVSHPHLVAEAYRSLASAQCPFLGPPRKRLKQS

Variants of: B1
Settings: with rl5_human RPL5, P46777

| Variant | effect of a mutation on the interaction |
| --- | --- |
| F133L | with no effect |

Variants of: B1
Settings: with rs15_human RPS15, P62841

| Variant | effect of a mutation on the interaction |
| --- | --- |
| F133L | with no effect |

Variants of: B1
Settings: with rptor_human RPTOR

| Variant | effect of a mutation on the interaction |
| --- | --- |
| F133L | with no effect |

Variants of: B1
Settings: with rxra_human RXRA

| Variant | effect of a mutation on the interaction |
| --- | --- |
| F133L | with no effect |

Variants of: B1
Settings: with sdha_human SDHA

| Variant | effect of a mutation on the interaction |
| --- | --- |
| F133L | with no effect |

Variants of: B1
Settings: with setbp_human SETBP1, Q9Y6X0

| Variant | effect of a mutation on the interaction |
| --- | --- |
| F133L | with no effect |

Variants of: B1
Settings: with sf3b1_human SF3B1, O75533

| Variant | effect of a mutation on the interaction |
| --- | --- |
| F133L | with no effect |

Variants of: B1
Settings: with skp2_human SKP2, Q13309

| Variant | effect of a mutation on the interaction |
| --- | --- |
| F133L | with no effect |

Variants of: B1
Settings: with smad1_human SMAD1, Q15797

| Variant | effect of a mutation on the interaction |
| --- | --- |
| F133L | with no effect |

Variants of: B1
Settings: with smca4_human SMARCA4, P51532

| Variant | effect of a mutation on the interaction |
| --- | --- |
| F133L | with no effect |

Variants of: B1
Settings: with snf5_human SMARCB1, Q12824

| Variant | effect of a mutation on the interaction |
| --- | --- |
| F133L | with no effect |

Variants of: B1
Settings: with smo_human SMO

| Variant | effect of a mutation on the interaction |
| --- | --- |
| F133L | with no effect |

Variants of: B1
Settings: with smuf1_human SMURF1, Q9HCE7

| Variant | effect of a mutation on the interaction |
| --- | --- |
| F133L | with no effect |

Variants of: B1
Settings: with socs1_human SOCS1, O15524
socs1_human SOCS1, O15524, sequence (O15524 whole entry): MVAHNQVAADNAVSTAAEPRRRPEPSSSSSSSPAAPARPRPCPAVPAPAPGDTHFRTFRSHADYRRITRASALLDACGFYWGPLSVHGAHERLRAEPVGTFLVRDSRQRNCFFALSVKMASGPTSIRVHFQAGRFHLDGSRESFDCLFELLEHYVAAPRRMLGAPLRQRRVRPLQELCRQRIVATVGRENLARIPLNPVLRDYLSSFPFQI

| Variant | effect of a mutation on the interaction |
| --- | --- |
| F133L | with no effect |

Variants of: B1
Settings: with sox10_human SOX10, P56693
sox10_human SOX10, P56693, sequence (P56693 whole entry): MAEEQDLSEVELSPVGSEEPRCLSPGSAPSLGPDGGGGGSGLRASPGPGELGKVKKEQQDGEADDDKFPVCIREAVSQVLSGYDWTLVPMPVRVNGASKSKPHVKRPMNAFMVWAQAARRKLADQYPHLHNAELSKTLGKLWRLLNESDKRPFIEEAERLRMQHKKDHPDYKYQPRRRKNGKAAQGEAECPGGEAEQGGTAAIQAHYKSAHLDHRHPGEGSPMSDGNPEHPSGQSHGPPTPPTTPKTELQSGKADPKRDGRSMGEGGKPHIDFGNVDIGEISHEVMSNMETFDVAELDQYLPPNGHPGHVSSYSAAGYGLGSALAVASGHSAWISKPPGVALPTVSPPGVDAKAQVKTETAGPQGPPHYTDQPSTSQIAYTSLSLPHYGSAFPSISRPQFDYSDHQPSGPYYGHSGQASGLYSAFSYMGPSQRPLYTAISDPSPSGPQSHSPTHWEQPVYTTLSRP

| Variant | effect of a mutation on the interaction |
| --- | --- |
| F133L | with no effect |

Variants of: B1
Settings: with sox2_human SOX2, P48431
sox2_human SOX2, P48431, sequence (P48431 whole entry): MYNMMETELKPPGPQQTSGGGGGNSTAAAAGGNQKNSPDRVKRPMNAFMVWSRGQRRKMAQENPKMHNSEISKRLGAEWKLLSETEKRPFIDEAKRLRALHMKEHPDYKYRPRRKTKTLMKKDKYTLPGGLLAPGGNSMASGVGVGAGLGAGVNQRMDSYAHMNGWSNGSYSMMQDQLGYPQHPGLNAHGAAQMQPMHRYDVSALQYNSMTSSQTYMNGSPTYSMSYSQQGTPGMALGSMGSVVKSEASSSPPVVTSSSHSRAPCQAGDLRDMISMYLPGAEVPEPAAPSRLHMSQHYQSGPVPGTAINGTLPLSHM

| Variant | effect of a mutation on the interaction |
| --- | --- |
| F133L | with no effect |

Variants of: B1
Settings: with src_human SRC

| Variant | effect of a mutation on the interaction |
| --- | --- |
| F133L | with no effect |

Variants of: B1
Settings: with whr1_human WHR1, P49842
whr1_human WHR1, P49842, sequence (P49842 whole entry): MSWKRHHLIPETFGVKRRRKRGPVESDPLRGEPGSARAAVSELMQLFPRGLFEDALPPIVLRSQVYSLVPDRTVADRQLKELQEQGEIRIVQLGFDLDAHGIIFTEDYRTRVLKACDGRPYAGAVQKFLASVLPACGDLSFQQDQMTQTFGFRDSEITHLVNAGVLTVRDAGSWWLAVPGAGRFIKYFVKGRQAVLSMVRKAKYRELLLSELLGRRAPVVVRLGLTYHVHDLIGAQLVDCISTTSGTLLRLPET

| Variant | effect of a mutation on the interaction |
| --- | --- |
| F133L | with no effect |

Variants of: B1
Settings: with stk38_human STK38, Q15208

| Variant | effect of a mutation on the interaction |
| --- | --- |
| F133L | with no effect |

Variants of: B1
Settings: with eloc_human ELOC

| Variant | effect of a mutation on the interaction |
| --- | --- |
| F133L | with no effect |

Variants of: B1
Settings: with tfe2_human TCF3, P15923

| Variant | effect of a mutation on the interaction |
| --- | --- |
| F133L | with no effect |

Variants of: B1
Settings: with tead1_human TEAD1, P28347

| Variant | effect of a mutation on the interaction |
| --- | --- |
| F133L | with no effect |

Variants of: B1
Settings: with tead3_human TEAD3, Q99594

| Variant | effect of a mutation on the interaction |
| --- | --- |
| F133L | with no effect |

Variants of: B1
Settings: with tead4_human TEAD4, Q15561

| Variant | effect of a mutation on the interaction |
| --- | --- |
| F133L | with no effect |

Variants of: B1
Settings: with tet2_human TET2, Q6N021

| Variant | effect of a mutation on the interaction |
| --- | --- |
| F133L | with no effect |

Variants of: B1
Settings: with TMEM106B

| Variant | effect of a mutation on the interaction |
| --- | --- |
| F133L | with no effect |

Variants of: B1
Settings: with tnr14_human TNFRSF14, Q92956

| Variant | effect of a mutation on the interaction |
| --- | --- |
| F133L | with no effect |

Variants of: B1
Settings: with tshr_human TSHR

| Variant | effect of a mutation on the interaction |
| --- | --- |
| F133L | with no effect |

Variants of: B1
Settings: with vegfa_human VEGFA

| Variant | effect of a mutation on the interaction |
| --- | --- |
| F133L | with no effect |

Variants of: B1
Settings: with vhl_human VHL

| Variant | effect of a mutation on the interaction |
| --- | --- |
| F133L | with no effect |

Variants of: B1
Settings: with wee1_human WEE1, P30291

| Variant | effect of a mutation on the interaction |
| --- | --- |
| F133L | with no effect |

Variants of: B1
Settings: with wwtr1_human WWTR1, Q9GZV5

| Variant | effect of a mutation on the interaction |
| --- | --- |
| F133L | with no effect |

Variants of: B1
Settings: with xpo1_human XPO1, O14980

| Variant | effect of a mutation on the interaction |
| --- | --- |
| F133L | with no effect |

Variants of: B1
Settings: with asxl2_human ASXL2, Q76L83

| Variant | effect of a mutation on the interaction |
| --- | --- |
| F133L | causing an interaction |

Variants of: B1
Settings: with ufo_human AXL

| Variant | effect of a mutation on the interaction |
| --- | --- |
| F133L | causing an interaction |

Variants of: B1
Settings: with birc2_human BIRC2, Q13490
birc2_human BIRC2, Q13490, sequence (Q13490 whole entry): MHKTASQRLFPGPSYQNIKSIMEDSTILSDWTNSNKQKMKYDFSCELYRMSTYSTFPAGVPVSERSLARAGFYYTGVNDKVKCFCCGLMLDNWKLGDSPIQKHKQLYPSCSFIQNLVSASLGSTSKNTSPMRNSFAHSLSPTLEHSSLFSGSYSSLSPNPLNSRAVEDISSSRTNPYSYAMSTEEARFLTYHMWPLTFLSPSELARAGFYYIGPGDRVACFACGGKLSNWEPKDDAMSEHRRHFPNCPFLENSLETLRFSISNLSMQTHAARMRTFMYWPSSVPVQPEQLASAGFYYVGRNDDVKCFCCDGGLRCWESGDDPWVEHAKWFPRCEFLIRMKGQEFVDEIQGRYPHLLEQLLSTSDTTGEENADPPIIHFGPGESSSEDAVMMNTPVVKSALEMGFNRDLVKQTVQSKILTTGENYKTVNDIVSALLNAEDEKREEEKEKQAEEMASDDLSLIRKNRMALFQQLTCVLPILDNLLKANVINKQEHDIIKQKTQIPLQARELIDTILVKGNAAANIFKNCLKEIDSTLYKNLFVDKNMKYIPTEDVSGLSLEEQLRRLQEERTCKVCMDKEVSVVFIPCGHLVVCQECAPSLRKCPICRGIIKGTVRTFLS

| Variant | effect of a mutation on the interaction |
| --- | --- |
| F133L | causing an interaction |

Variants of: B1
Settings: with cul4b_human CUL4B

| Variant | effect of a mutation on the interaction |
| --- | --- |
| F133L | causing an interaction |

Variants of: B1
Settings: with jak1_human JAK1, P23458
jak1_human JAK1, P23458, sequence (P23458 whole entry): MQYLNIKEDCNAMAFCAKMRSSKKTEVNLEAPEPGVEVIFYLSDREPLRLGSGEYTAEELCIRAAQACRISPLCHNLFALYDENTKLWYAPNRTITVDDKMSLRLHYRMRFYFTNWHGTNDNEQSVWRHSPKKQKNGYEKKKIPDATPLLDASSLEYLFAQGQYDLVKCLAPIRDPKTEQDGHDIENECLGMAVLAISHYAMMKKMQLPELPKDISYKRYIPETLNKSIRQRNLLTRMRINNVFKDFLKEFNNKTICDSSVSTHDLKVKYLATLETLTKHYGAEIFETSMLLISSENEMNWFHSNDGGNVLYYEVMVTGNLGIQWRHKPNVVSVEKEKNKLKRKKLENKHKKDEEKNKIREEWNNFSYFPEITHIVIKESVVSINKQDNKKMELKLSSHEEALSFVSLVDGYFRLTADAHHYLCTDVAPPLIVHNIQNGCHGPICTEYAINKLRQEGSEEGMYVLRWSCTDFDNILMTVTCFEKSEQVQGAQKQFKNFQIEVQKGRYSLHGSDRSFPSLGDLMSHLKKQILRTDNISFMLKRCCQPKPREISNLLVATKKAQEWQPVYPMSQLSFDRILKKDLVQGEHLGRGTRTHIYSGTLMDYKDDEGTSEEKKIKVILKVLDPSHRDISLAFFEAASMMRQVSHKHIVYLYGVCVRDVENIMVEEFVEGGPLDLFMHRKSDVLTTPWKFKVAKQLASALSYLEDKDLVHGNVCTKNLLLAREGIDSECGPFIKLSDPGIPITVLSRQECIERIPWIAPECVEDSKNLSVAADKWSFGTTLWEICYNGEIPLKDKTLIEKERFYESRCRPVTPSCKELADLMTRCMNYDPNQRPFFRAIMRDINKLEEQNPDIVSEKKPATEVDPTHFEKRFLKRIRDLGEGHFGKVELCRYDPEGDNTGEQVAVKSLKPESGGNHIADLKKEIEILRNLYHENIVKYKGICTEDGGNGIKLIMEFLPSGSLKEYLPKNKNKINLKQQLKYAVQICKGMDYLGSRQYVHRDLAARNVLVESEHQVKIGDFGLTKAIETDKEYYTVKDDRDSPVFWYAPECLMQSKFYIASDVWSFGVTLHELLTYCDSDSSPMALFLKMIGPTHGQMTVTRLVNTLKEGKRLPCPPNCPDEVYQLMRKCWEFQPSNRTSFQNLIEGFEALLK

| Variant | effect of a mutation on the interaction |
| --- | --- |
| F133L | causing an interaction |

Variants of: B1
Settings: with pk3cb_human PIK3CB

| Variant | effect of a mutation on the interaction |
| --- | --- |
| F133L | causing an interaction |

Variants of: B1
Settings: with tsc2_human TSC2, P49815

| Variant | effect of a mutation on the interaction |
| --- | --- |
| F133L | causing an interaction |

Variants of: B1
Settings: with birc2_human BIRC2, Q13490
Remark: another data set of the same source

| Variant | effect of a mutation on the interaction |
| --- | --- |
| F133L | increasing interaction strength |

Variants of: B1
Settings: with cblb_human CBLB

| Variant | effect of a mutation on the interaction |
| --- | --- |
| F133L | causing an interaction |

Variants of: B1
Settings: with e2f5_human E2F5, Q15329

| Variant | effect of a mutation on the interaction |
| --- | --- |
| F133L | causing an interaction |

Variants of: B1
Settings: with gata1_human GATA1, P15976

| Variant | effect of a mutation on the interaction |
| --- | --- |
| F133L | increasing interaction strength |

Variants of: B1
Settings: with igf1r_human IGF1R

| Variant | effect of a mutation on the interaction |
| --- | --- |
| F133L | increasing interaction strength |

Variants of: B1
Settings: with esr1_human ESR1, P03372

| Variant | effect of a mutation on the interaction |
| --- | --- |
| F133L | decreasing interaction strength |
